The test has as its target canine CD3 on canine T cells (canine PBMC) (canine, UniProt P27597 22-202). In words: cell-based or functional assay.

The values that follow come from US20240209086A1 (PETMEDIX, published 2024).

Residue numbers refer to the chain shown, from its start.

Sequence of canine CD3 on canine T cells (canine PBMC) (P27597 22-202 limits assumed, chain 1 of 3): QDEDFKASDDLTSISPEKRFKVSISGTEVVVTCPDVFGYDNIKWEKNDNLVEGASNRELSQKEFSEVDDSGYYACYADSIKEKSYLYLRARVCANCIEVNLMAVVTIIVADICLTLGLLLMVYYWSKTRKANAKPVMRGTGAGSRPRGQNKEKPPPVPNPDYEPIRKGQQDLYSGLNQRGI
Sequence of canine CD3 on canine T cells (canine PBMC) (chain, as listed by the source limits assumed, chain 2 of 3): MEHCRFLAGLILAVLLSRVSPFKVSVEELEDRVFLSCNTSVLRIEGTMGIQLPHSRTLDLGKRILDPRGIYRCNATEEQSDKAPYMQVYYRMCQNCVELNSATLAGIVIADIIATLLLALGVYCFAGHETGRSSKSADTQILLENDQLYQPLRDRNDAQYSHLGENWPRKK
Sequence of canine CD3 on canine T cells (canine PBMC) (chain, as listed by the source limits assumed, chain 3 of 3): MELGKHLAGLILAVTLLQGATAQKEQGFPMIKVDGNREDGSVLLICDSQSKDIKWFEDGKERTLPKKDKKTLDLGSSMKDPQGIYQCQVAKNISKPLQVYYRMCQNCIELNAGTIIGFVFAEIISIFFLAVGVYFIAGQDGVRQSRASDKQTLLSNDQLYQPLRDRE

B1: PMX200 (monospecific anti-canine CD3, canine IgG-B effector function deficient Fc) (antibody, V domains shown)
VH: ELTLQESGPGLVKPSQTLSLTCIVSGGSVTSSYYWNWIRQSPGRGLEWMGYWTGNTNYNPALQGRIFITADTAKNQFSLQLRSMTTEDTAVYYCARGGYGYHYGMDYWGHGTSVFVSS
VL: SYVLTQLPSKSVALKQPAHITCGGDNIGSKRVHWYQQKLGQAPALIISFDNSRPTGIPERFSGANSGNTATLTISGALAEDEADYYCQVWDSTAKASIFGGGTHLTVL
As for B1, the “CD25 Activation, Day 6, IS” value was 8.83; the “CD25 Activation, Day 6, PB” value worked out at 19.5; the “CD25 Activation, Day 9, IS” value amounted to 13.1; the “CD25 Activation, Day 9, PB” value was determined as 15. For the same molecule, the “IFNy Concentration pg/ml, Day 6, IS” value amounted to 59.6 pg/mL; the “IFNy Concentration pg/ml, Day 9, IS” value stood at 363 pg/mL; the “IFNy Concentration pg/ml, Day 9, PB” value amounted to 822 pg/mL; the “Ki67 Proliferation, Day 6, IS” value is 0.76. The “Ki67 Proliferation, Day 6, PB” value came to 2.92; the “Ki67 Proliferation, Day 9, IS” value was found to be 1.29; the “Ki67 Proliferation, Day 9, PB” value was 0.78.

B2: PMX184 (monospecific anti-canine CD3, canine IgG-B effector function deficient Fc) (antibody, V domains shown)
VH: ELTLQESGPGLVKPSQTLSLTCGVSGGSVTRSHYWNWVRQRPGRGLEWMGYWTGSTNYNPAFQGRISITADTAKNQFSLQLRSMTTEDTAVYFCARETTIPTFFFDYWGQGTLVTVSS
VL: SYVLTQLPSKNVTLKQPAHITCGGDNIGSKSVHWYQQKLGQAPVLIIYYDSSRPTGIPERFSGANSGNTATLTISGALAEDEADYYCQVWDSGAKAWVFGEGTQLTVL
As to B2, the “CD25 Activation, Day 6, IS” value came to 10.4; the “CD25 Activation, Day 6, PB” value turned out to be 28.8; the “CD25 Activation, Day 9, IS” value worked out at 12.3; the “CD25 Activation, Day 9, PB” value worked out at 28.2. The “IFNy Concentration pg/ml, Day 6, IS” value turned out to be 74.8 pg/mL; the “IFNy Concentration pg/ml, Day 9, IS” value is 322 pg/mL; the “IFNy Concentration pg/ml, Day 9, PB” value was determined as 3290 pg/mL; the “Ki67 Proliferation, Day 6, IS” value is 2.42. For the same molecule, the “Ki67 Proliferation, Day 6, PB” value came to 1.47; the “Ki67 Proliferation, Day 9, IS” value was 1.64; the “Ki67 Proliferation, Day 9, PB” value amounted to 0.75.

B3: PMX198 (monospecific anti-canine CD3, canine IgG-B effector function deficient Fc) (antibody, V domains shown)
VH: EFTLQESGPGLVKPSQTLSLTCIVSGGSVTSSYYWNWIRQRPGRGLEWMGYWTGSTNYNPAFQGRISITPDTAKNQFSLQLSSMTTEDTAVYYCAREGGSSLQAFGNWGQGTLVTVSS
VL: B2 VL with S29R, V44I, G93S, W97S, E101G, Q104H
As for B3, the “CD25 Activation, Day 6, IS” value came out at 11.3; the “CD25 Activation, Day 6, PB” value was 26.8; the “CD25 Activation, Day 9, IS” value came out at 10.4; the “CD25 Activation, Day 9, PB” value came to 25.5. In addition, the “IFNy Concentration pg/ml, Day 6, IS” value was determined as 82.8 pg/mL; the “IFNy Concentration pg/ml, Day 9, IS” value turned out to be 191 pg/mL; the “IFNy Concentration pg/ml, Day 9, PB” value was 2790 pg/mL; the “Ki67 Proliferation, Day 6, IS” value worked out at 0.87. For the same molecule, the “Ki67 Proliferation, Day 6, PB” value worked out at 0.61; the “Ki67 Proliferation, Day 9, IS” value worked out at 4.37; the “Ki67 Proliferation, Day 9, PB” value was determined as 0.

B4: PMX190 (monospecific anti-canine CD3, canine IgG-B effector function deficient Fc) (antibody)
heavy: EVQLVESGGDLVKPGGSLRLSCVASGFTFSSYQMSWVRQAPGKGLQWVAYISSGGGRTTYADAVRGRLTISRDNAKNTLYLQMNSLRAEDAAVYYCAREGGGEIYGYKDYGMDYWGHGTSLFVSSASTTAPSVFPLAPSCGSTSGSTVALACLVSGYFPEPVTVSWNSGSLTSGVHTFPSVLQSSGLYSLSSMVTVPSSRWPSETFTCNVAHPASKTKVDKPVPKRENGRVPRPPDCPKCPAPESLGGPSVFIFPPKPKDTLLIARTPEVTCVVVDLGREDPEVQISWFVDGKQMQTAKTQPREEQFNGTYRVVSVLPIGHQDWLKGKQFTCKVNHIGLPSPIERTISKARGQAHQPSVYVLPPSREELSKNTVSLTCLIKDFFPPDIDVEWQSNGQQEPESKYRTTPPQLDEDGSYFLYSKLSVDKSRWQRGDTFICAVMHEALHNHYTQKSLSHSPGK
VL: B2 VL with G93S
In the case of B4, the “CD25 Activation, Day 6, IS” value turned out to be 11.3; the “CD25 Activation, Day 6, PB” value came to 14.8; the “CD25 Activation, Day 9, IS” value stood at 13.5; the “CD25 Activation, Day 9, PB” value amounted to 11.8. Also, the “IFNy Concentration pg/ml, Day 6, IS” value worked out at 54.4 pg/mL; the “IFNy Concentration pg/ml, Day 9, IS” value was determined as 384 pg/mL; the “IFNy Concentration pg/ml, Day 9, PB” value is 699 pg/mL; the “Ki67 Proliferation, Day 6, IS” value was 0.73. Also, the “Ki67 Proliferation, Day 6, PB” value came out at 0.98; the “Ki67 Proliferation, Day 9, IS” value came out at 0.9; the “Ki67 Proliferation, Day 9, PB” value stood at 2.73.

B5: PMX197 (monospecific anti-canine CD3, canine IgG-B effector function deficient Fc) (antibody, V domains shown)
VH: ELTLQESGPGLVKPSQTLSLTCLVSGGSVTRSYYWNWIRQRPGRGLEWMGYWTGSTNYNPAFQGRISIIPDTAKNQFSLQLTSMTTDDTAIYFCAREGGRTLGAFADWGQGTLVTVSS
VL: B2 VL with N26K, S31N, G93S, W97S, E101G, Q104H
On to B5, for which the “CD25 Activation, Day 6, IS” value stood at 10.5; the “CD25 Activation, Day 6, PB” value worked out at 23.3; the “CD25 Activation, Day 9, IS” value amounted to 9.24; the “CD25 Activation, Day 9, PB” value was 14. The “IFNy Concentration pg/ml, Day 6, IS” value was found to be 58 pg/mL; the “IFNy Concentration pg/ml, Day 9, IS” value was 307 pg/mL; the “IFNy Concentration pg/ml, Day 9, PB” value was determined as 2340 pg/mL; the “Ki67 Proliferation, Day 6, IS” value was 1.43. The “Ki67 Proliferation, Day 6, PB” value was 0.67; the “Ki67 Proliferation, Day 9, IS” value amounted to 3.21; the “Ki67 Proliferation, Day 9, PB” value is 0.

B6: PMX196 (monospecific anti-canine CD3, canine IgG-B effector function deficient Fc) (antibody, V domains shown)
VH: ELTLQESGPGLVKPSQTLSLTCVVSGGSVTSSYYWNWIRQRPGRGLEWMGYWTGSTIYNPAFQGRISITADTAKNQFSLQLSSMTTEDTAVYFCVRERRMAFGSWGQGTLVIVSS
VL: B1 VL with A13T, S29R, R31S, A44V, S52N, T93S, I98V
Turning to B6, the “CD25 Activation, Day 6, IS” value came to 10.4; the “CD25 Activation, Day 6, PB” value worked out at 23; the “CD25 Activation, Day 9, IS” value worked out at 6.6; the “CD25 Activation, Day 9, PB” value is 17.1. Further, the “IFNy Concentration pg/ml, Day 6, IS” value came to 34.8 pg/mL; the “IFNy Concentration pg/ml, Day 9, IS” value amounted to 160 pg/mL; the “IFNy Concentration pg/ml, Day 9, PB” value worked out at 2080 pg/mL; the “Ki67 Proliferation, Day 6, IS” value was 0.92. Besides, the “Ki67 Proliferation, Day 6, PB” value came out at 1.41; the “Ki67 Proliferation, Day 9, IS” value worked out at 0.94; the “Ki67 Proliferation, Day 9, PB” value came out at 0.

B7: PMX186 (monospecific anti-canine CD3, canine IgG-B effector function deficient Fc) (antibody)
heavy: EVKLVESGGDLVKPGGSLRLSCVASGVTFSRYYMSWVRQAPGKGLQWVAYINSGGSTTSYADAVKGRFTISRDNAKNTLYLQMNSLRAEDTAVYYCASEGVGEIYGYKDFGMDYWGHGTSLFVSSASTTAPSVFPLAPSCGSTSGSTVALACLVSGYFPEPVTVSWNSGSLTSGVHTFPSVLQSSGLYSLSSMVTVPSSRWPSETFTCNVAHPASKTKVDKPVPKRENGRVPRPPDCPKCPAPESLGGPSVFIFPPKPKDTLLIARTPEVTCVVVDLGREDPEVQISWFVDGKQMQTAKTQPREEQFNGTYRVVSVLPIGHQDWLKGKQFTCKVNHIGLPSPIERTISKARGQAHQPSVYVLPPSREELSKNTVSLTCLIKDFFPPDIDVEWQSNGQQEPESKYRTTPPQLDEDGSYFLYSKLSVDKSRWQRGDTFICAVMHEALHNHYTQKSLSHSPGK
VL: B2 VL with S52R, G93S
Consider B7, for which the “CD25 Activation, Day 6, IS” value came to 10.5; the “CD25 Activation, Day 6, PB” value was 20; the “CD25 Activation, Day 9, IS” value amounted to 10.9; the “CD25 Activation, Day 9, PB” value is 17.6. Also, the “IFNy Concentration pg/ml, Day 6, IS” value stood at 27.7 pg/mL; the “IFNy Concentration pg/ml, Day 9, IS” value was 217 pg/mL; the “IFNy Concentration pg/ml, Day 9, PB” value turned out to be 1220 pg/mL; the “Ki67 Proliferation, Day 6, IS” value is 2.63. For the same molecule, the “Ki67 Proliferation, Day 6, PB” value is 0.2; the “Ki67 Proliferation, Day 9, IS” value was 1.09; the “Ki67 Proliferation, Day 9, PB” value is 0.74.

B8: PMX185 (monospecific anti-canine CD3, canine IgG-B effector function deficient Fc) (antibody)
heavy: EVQLVESGGDLVKPGGSLRLSCVASGFTFSSYHMSWVRQAPGKGLQWVASINSGGSRTSYVDAVKGRFTISRDNAKKTLYLQMNSLRAEDTAVYYCASGRTGPKLGLGDYGMDSWGHGTSLFVSSASTTAPSVFPLAPSCGSTSGSTVALACLVSGYFPEPVTVSWNSGSLTSGVHTFPSVLQSSGLYSLSSMVTVPSSRWPSETFTCNVAHPASKTKVDKPVPKRENGRVPRPPDCPKCPAPESLGGPSVFIFPPKPKDTLLIARTPEVTCVVVDLGREDPEVQISWFVDGKQMQTAKTQPREEQFNGTYRVVSVLPIGHQDWLKGKQFTCKVNHIGLPSPIERTISKARGQAHQPSVYVLPPSREELSKNTVSLTCLIKDFFPPDIDVEWQSNGQQEPESKYRTTPPQLDEDGSYFLYSKLSVDKSRWQRGDTFICAVMHEALHNHYTQKSLSHSPGK
VL: B2 VL with L45M, G93S
On to B8, for which the “CD25 Activation, Day 6, IS” value was 14.7; the “CD25 Activation, Day 6, PB” value was 11.9; the “CD25 Activation, Day 9, IS” value was 10.3; the “CD25 Activation, Day 9, PB” value stood at 13.9. Also, the “IFNy Concentration pg/ml, Day 6, IS” value was found to be 86.7 pg/mL; the “IFNy Concentration pg/ml, Day 9, IS” value was 217 pg/mL; the “IFNy Concentration pg/ml, Day 9, PB” value turned out to be 166 pg/mL; the “Ki67 Proliferation, Day 6, IS” value was 0.93. The “Ki67 Proliferation, Day 6, PB” value is 0.85; the “Ki67 Proliferation, Day 9, IS” value was 2.65; the “Ki67 Proliferation, Day 9, PB” value is 0.39.

B9: PMX195 (monospecific anti-canine CD3, canine IgG-B effector function deficient Fc) (antibody, V domains shown)
VH: EVQLVESGGDLVKPAGSLRLSCMASGFTFSSYSMSWVRQAPEKGLQLVAGINGDGSTTYYTDAVKGRFTISRDNAKNTVYLQMNNLRVEDSAMYYCAKGAGTGDYWGQGTLVTVSS
VL: SYELTQPPSLNVTLRETAHITCGGDRIGSRYVQWIQQNPGQAPVVVIYKDSNRPTGIPERFSGANSGNTATLTISGALAEDEADYYCQVGDSGNWVFGGGTQLTVL
Take B9: the “CD25 Activation, Day 6, IS” value stood at 10.4; the “CD25 Activation, Day 6, PB” value worked out at 16.8; the “CD25 Activation, Day 9, IS” value came to 7.58; the “CD25 Activation, Day 9, PB” value amounted to 14.7. Besides, the “IFNy Concentration pg/ml, Day 6, IS” value was 63.9 pg/mL; the “IFNy Concentration pg/ml, Day 9, IS” value turned out to be 208 pg/mL; the “IFNy Concentration pg/ml, Day 9, PB” value came out at 627 pg/mL; the “Ki67 Proliferation, Day 6, IS” value worked out at 2.94. In addition, the “Ki67 Proliferation, Day 6, PB” value was determined as 0.43; the “Ki67 Proliferation, Day 9, IS” value is 2.33; the “Ki67 Proliferation, Day 9, PB” value is 0.67.
